Assay: soluble on expression in E. coli; label from the status in PepcDB or PDB records

Sequence	soluble on expression in E. coli
MRKQNRPNQTARKQMQNLTVELFARDKNARRQLLNVALTATPPPSVEPSSPTRPSEPIPPPLPEPIPELVQILLAAEPNKPSVPKRSNRKKLTYKQPPRNSTPQVPKVAVTLPVPEPVPEPVPEPVPESTPEPISEPLPVVQEEPASDSLTVQDEQIAQAEPAVEPEEPVVVEHVEVVTASEDPTLESSPPSEPPLLTTPTTPIEDPEPYVTPPPLQRVPYKAQLTHLANIRAVTESMNIAAIPAHHQQHQPQEPMSFAACVRKQPSIESMSVSPSPYAKFDGKTSPFNVGGFSNPGGFGGFSRLDPSKNVNPFANRKRFNYDYDSLPRDSQSSSRFMDRSDLSDGFSPFNSKPNGFTNRVIPRESASSGMLPSWYKGRSFSAASSHYPYSQRSTSTGHFSSFSRPSQSTSMNIPSHGHVEELDGFLAASGQTNPFFKRTDLNMKKERWAKIKAKKRMLRRPVEDQFYEDPDIEEEILHGNGVMLNQIVQQSSAGNYEDADLLRKYRRDVAFVKERVLNAIDGNIDGIRDLRFLLASVQTYGNIDGECMLAEMAMNEFSLFSGIVEKFHAIVGPWMPESESHRRRASRHALETHRIPLQNNFATITKKRLVEEILGRVEPSIACHQGVKVGLYSDACNEKTKIDLNIKNNFKDPGMLCDKNDRRFILVLQSELDLMVDSMKHLANNVGFHYDGFPVTPNCFVIVEAFVEAISDIMNEKIDVETMRWFSLLGQKVDAEDSVSPWETGTDFHCARHSEPKSNFCASVTVGRTCCIVYHVIGSFFRRYHLKKIPTAHQPSSSNSVQ	not soluble
MGSDKIHHHHHHMTGIVTANWWTSLIYRVFVRTACLRAGRGLLPNIWEWLWRLSCNIIEGPVDITIHNRPAIVNFGYTYPIYMRCYPELNAPLVELTYQCWRSRGTAICIVDVGAAVGDTMLLLHSNLPEAVGSFVCIEGDQEFYRYLQHNLGHMTEGRLINVVVADQETEVSDLVRIHTGTASAQGERTRGASTLSAVVTEEIDLIKIDVDGFDGRVLLGAEDLLKRCRPLVIFEWHPSLCRQTGNNWTDHFDVLARCGYSRCLWFTKFGHFSHFSFGHCREEIDTLAEYCMSDVVKDWHYDVIALHDDSDLSLLLLSQLGFAKARPSRY	not soluble
MKAKLVSLLAQANIKISDQQIQQLINLVNLLNKWNKAYNLTSVRDPQEMLVKHILDSLVVSPYLQGDRFIDVGTGPGLPGLPLAIINPSKQFVLLDSLGKRISFIRNAIRELRLTNVTPVLSRVEEYQPEDKFDGVLSRAFASLKDMTDWCHHLPKENGYFYALKGIYQEDEINELNKKYTIQKVIELSVPELIGERHLIVLRLEHHHHHH	not soluble
SFTMAQQSGGGLTRGSFPEGFVFGTASAAYQYEGAVKEDGRGQTIWDTFAHTFGKITDFSNADVAVDQYHRFEEDIQLMADMGMDAYRFSIAWSRIYPNGVGQVNQAGIDHYNKLIDALLAKGIQPYVTLYHWDLPQALEDKYKGWLDRQIVDDFAAYAETCFREFGDRVKHWITLNEPHTVAIQGYDAGLQAPGRCSVLLHLYCKAGNSGTEPYVVAHHFILAHAAAASIYRTKYKATQNGQLGIAFDVMWFEPMSNTTIDIEAAKRAQEFQLGWFADPFFFGDYPATMRARVGERLPRFTADEAAVVKGALDFVGINHYTTYYTRHNNTNIIGTLLNNTLADTGTVSLPFKNGKPIGDRANSIWLYIVPRGMRSLMNYVKERYNSPPVYITENGMDDSNNPFISIKDALKDSKRIKYHNDYLTNLAASIKEDGCDVRGYFAWSLLDNWEWAAGYSSRFGLYFVDYKDNLKRYPKNSVQWFKALLKT	soluble
MRIHNDKNDHGDNNEIMDYILEKYKPLVRKKTNALYLIGGENDDLIQEGMIGLFKAVRDYKSDKEASFYSFAQLCITRQLSSALEASNRKKHMPLNTYISFSQSDSDGTEFEEMLQDDIASPEQLLIEKEKFKEFKEQLWNKLSNMEKKVLQLYLEGNNYTSIAHMLGKSDKSIDNALSRIRQKLKRK	not soluble
MGSDKIHHHHHHMAFKNLKELSFEKSNYIKPKRFAYESNGRLCTWDFIESKDSVSVLLYHKELESFIFVRQFRIPLWYHQMHDKDYVKDDDMGYTIELCSGLVDKKLSLEEIAKEECIEELGYAPKNLEKIGDFYTGFGSGVSKQSFYFVEVDEKDKISSGGGVDDEEIEAVYVKVQDFEKKCKNMIRTPLLDFAYMWFLKEKWGKLKII	not soluble
MTRTETLELLVATLQQTNASQSESIRQLTRQNEQLQNKLDELLAQVAWLNRQLFGRKSEKLSRLDPNQLSLFEQPVQSLEPEPLEETVVEQTTTPMVTKKKERQNRKLLEGLPVVEVVIEPQDLDLTKYKRIGEEHTRTLEFEPGKLYVKEIIRPKYGLKDNTALPQEYQDGIVIADLPLLPIYKGLPGASLLAEILLQKYEYHVPFYRQIREFHHLGLKIPENTLHGWFKPACELLKPLYDELKKQVLAVDYIQVDETTLPIINKQSHKAVREYLWMVRAVTSGLVFFHYDDGSRSQETARNLLEPFKGYLQSDGYAAYNVFEGKERVCLVGCLVHIRRHYETAKEENKSQAKYVLAKIQELYRIEQAADIQGISPEMRMSKRQKQALPILDELEQWMETTYPKVLPKSQMGQAIAYAYTLWPRMRNYLKDGKLKIDNNLAENAIRPIALSRKNFLFCGNHEAAENTDVICSLLASCKASQVNPREWLTEIIAWLPYYTRDKGKDLKELLPNYWKLRRSKEI	not soluble
RSYGPVFEEQPAHTLFPEGSAEEKVTLTCRARANPPATYRWKMNGTELKMGPDSRYRLVAGDLVISNPVKAKDAGSYQCVATNARGTVVSREASLRFGFLQEFSAEERDPVKITEGWGVMFTCSPPPHYPALSYRWLLNEFPNFIPADGRRFVSQTTGNLYIAKTEASDLGNYSCFATSHIDFITKSVFSKFSQLSLAAEDARQYAPSIKAKFPADTYALTGQMVTLECFAFGNPVPQIKWRKLDGSQTSKWLSSEPLLHIQNVDFEDEGTYECEAENIKGRDTYQGRIIIHAQPDWLDVITDTEADIGSDLRWSCVASGKPRPAVRWLRDGQPLASQNRIEVSGGELRFSKLVLEDSGMYQCVAENKHGTVYASAELTVQA	soluble
MSLKRTEISSLGEFGLIRHLTDCVRLKNPGTLKGIGDDAAVISFDEGMKALVTTDMLLEGIHFDLTYTPLKHLGYKSAIVNFSDIYAMNGTPRQLTVSIGVSARFSVEDIEQIYQGILTACDAYGVDLVGGDTSASLTGLCLSLTCIGEAREEEIVYRSGAKPTDLICVSGDLGAAYMGLQLLEREKAVYQGEKDFAPDFAGHEYILERQLKPEARKDIVEELRSAGIKPTAMMDISDGLSSELLHIAHAGKVGVRIYDDKLPIDYQTAAMAEEFNMNLSTAALNGGEDYELLFTVPLTRLDDIQRIEGIHLIGHITEEADGHLLVARDGTEITLVAQGWNAAKALNGEGHHHHHH	soluble
MAMSTKLSVAIHILSLIETGPQEQVTSEYIASSVNTNPVVVRRLMSQLKKAGLIHSMRGANKNTLLKKPEEISLYEIYTAVELEREIFNIHQNPNPNCSVGANIQSVLETEFTKVQQKMEEELKSITLADVIHEIEVKRDK	not soluble
MEIRPTRIELIRTRRRIKLARKGLDLLKMKRSALIYEFLQISRTIRGMRENLRREVEDALNTIRTAEILEGQVALERIANMSSDSTINVDSRNVMGVVIPTLNLTYNLSILSDVYRTISVPVAINDAIDRFQRLFLNLIQILEKENALRNLLIEIDKTKRRSNAIENILIPRLEYQAKMIKMMLDERERDTFTTLKTIKKKIEAGKDEE	not soluble
GPGSMADEEDYDFEVNKKETDKIERPERLIEVLQHDTNQTLTEEMVEHAQAVLDFMPVEYTYKDVAAKLKCRLDGAYGGTWHVIVGKHFGANVTNDDDTLINMKINGVYFLAMRSGPPERPQESAENEAVTAE	soluble
MSGGLLKALRSDSYVELSQYRDQHFRGDNEEQEKLLKKSCTLYVGNLSFYTTEEQIYELFSKSGDIKKIIMGLDKMKKTACGFCFVEYYSRADAENAMRYINGTRLDDRIIRTDWDAGFKEGRQYGRGRSGGQVRDEYRQDYDAGRGGYGKLAQNQ	soluble
MGSDKIHHHHHHMRVLVKLSGEALSGEGGRGFDPERVNYIVNEIKSAIEEGFKIGIVVGAGNLFRGVELKNLTMTRADQIGLLGTVMNSVYLKDIFERSGLKARIYSQIVNLPDVERVNYDSIESALRENSILIFAGGTSNPFFTTDTAAVLRAQEMRAKLVVKATKVDGVYDKDPKKFPDAKKIPHLTFSEAMKMGLKVMDAEAFALCKKLGITVKVINFFEPGTLLKALKGEDVGSTVVPD	not soluble
MGSDKIHHHHHHIASQENCSNKEDLTNRAEDFQSDFVKTMDIIKEHHVAYGNSNARNMLEVREQILQEKGFDDIYVQKKHAENCTAIAELPRVLAKIDELKNTGDEKTVLEYVSRGLLAGNVFDWGAKEVVKMMNSESGLTFQTAIDHVENRPWLFDGFDSFYKKHKEYKSVLIFVDNSGFDYILGIIPFARELLRNGSRVIICANTSPALNDLTYREMVELAPELKNADSDLAKFIDSNQMMFVQTGQESPCMDARRVHQDLNETVKKFNTDLVVIEGMGRALHTNFNVQFKCDSLKAAVIKTQWLADRLGGKMFSVVFKHE	not soluble
MGSDKIHHHHHHMDMIVTSKKSSRNANSGCAIHCNDCSMSELCIPFTLNANELEELDNIIERKKPVQKGDKLFQSGDGLKSLYAIRSGTIKSYTITQQGDEQITGFHLAGDVIGFDAIHKQAHQSFAEALETSMICEIPFDTLDSLAGTMPKLRQQIMRLMSHEIISDQEMILLLSKKNAEERLAAFIAKLANRFANRGFSPNEFRLSMTRGDIGNYLGLTVETISRLLGRFQKAQMIAVNGKYITIVDHQALNTLADHTEQ	not soluble
MSQTRTHEQVLAKEPWYHGLLPREDMKQLLTQRGDFLVRFTDPKVGEPRKFVLSVYVGVIEDIRHYVIREHNNKFAVDKKWFSSIADLLNYYHRSKEPVAGGPETVIIRPIGREPWEKQHSDVTLIKKLGEGAFGEVQLGEIRIGNTVKKAAIKLAKLESLTKEQIKEIMHEARLMRKFKHPNVVTFYGVAAGQEPLMVIMELADNGALDSYLKKNIGSLPISKKHTMVLQAGLGLEYLHSLQIIHRDIASRNCLYGNGQVKISDFGLSREGYSYRMNPHKKVPIRWLAPEVPRTGFYTPKTDVFAYGVMCWEVYHDGIEPYPGMKVAEVLPRVQNGYRMPFEANVPPAIVRFITYRICAGAEEERVTMSEAVRELLTLEGFDQAPGSNSYFELPDHIPMENIEQPKKIQVSNILPYMSKPVAPPFEPERQEKTQEMRKSMSNSAEEGVKKNRRPVRTRIRNGNSPSPGFKSQSRSAAENQNKSNLKAVQKKKNNKQSSSISGDAPSTFSVLGVFGKKKNTADRSDLKKLEEF	not soluble
MGSDKIHHHHHHQRDLWNIFKLWGWTMLCCDFLAHHGTDCWTYHYSEKPMNWQRARRFCRDNYTDLVAIQNKAEIEYLEKTLPFSRSYYWIGIRKIGGIWTWVGTNKSLTEEAENWGDGEPNNKKNKEDCVEIYIKRNKDAGKWNDDACHKLKAALCYTASCQPWSCSGHGECVEIINNYTCNCDVGYYGPQCQFVIQCEPLEAPELGTMDCTHPLGNFSFSSQCAFSCSEGTNLTGIEETTCGPFGNWSSPEPTCQVIQCEPLSAPDLGIMNCSHPLASFSFTSACTFICSEGTELIGKKKTICESSGIWSNPSPICQKLDKSFSMIKEGDYN	not soluble
MNKPLMSKATAVWLIDNTTLSFRQIADFCGMHELEVQGIADGDVATGVKGFDPVANNQLDAIEIEKGQRDPLYKMKLKFNPAAVGEEKRRGPRYTPLSKRQDRPAAILWLVKFHPELSDGAIAKLVGTTKPTIQSIRERTHWNIGSIQPIDPVALGLCRQTELDAAVQQAARRKAAEGVVMSDDERRKLVSTEQSLSMPDEPRMPSGLEQFGRSEEEKRPADFSDADSFFNLPHGDDADEEEDEDPARAAALEHHHHHH	soluble

— the DeepSol protein solubility set
